Results from the supplement of paper PMC7125110.
± gives the standard error. Fewer inactive variants are shown than the library holds.

B1: glmS ribozyme (parent)
chain: AUAAAAGCGCCAGAACUACAGAAAUGUAGUUGACGAGGAGGAGGUUUAUCGAAUUUUCGGCGGAUGCCUCCAAA

Variants of: B1
Assay: self-cleavage kobs at 2500 uM GlcN6P; higher = faster cleavage; RNA array
Details: with glucosamine-6-phosphate
In short: (§1)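 Tracking of barcoded ribozyme variants used a hybridised Cy3 probe at 37 °C, after in situ transcription by E. coli RNA polymerase on sequenced MiSeq chips. The flowed solution held 40 μM to 10 mM glucosamine-6-phosphate in HEPES/KCl/Mg(OAc)2 buffer, and imaging ran over ~14 h. kobs was taken from exponential decay fits of normalised per-tile medians, and kcat and KM from weighted Michaelis–Menten fits.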

Q: A33G C34A U46A C61A was tested. Which “self-cleavage kobs at 2500 uM GlcN6P” value did it give?
A: < 1e-05 s⁻¹

Q: U30C C61U U65A was tested. Which “self-cleavage kobs at 2500 uM GlcN6P” value did it give?
A: < 1e-05 s⁻¹

Q: For G32C A42G G59U, which “self-cleavage kobs at 2500 uM GlcN6P” value is on record?
A: < 1e-05 s⁻¹

Q: C34U G40A G41C A48C A52G was tested. Which “self-cleavage kobs at 2500 uM GlcN6P” value did it give?
A: < 1e-05 s⁻¹

Q: With A33G A42U U49A G60A as the variant, how does the “self-cleavage kobs at 2500 uM GlcN6P” value read?
A: < 1e-05 s⁻¹

Q: With G29C G63C as the variant, how does the “self-cleavage kobs at 2500 uM GlcN6P” value read?
A: < 1e-05 s⁻¹

Q: How did the “self-cleavage kobs at 2500 uM GlcN6P” value turn out when C34A A42U U47A was run?
A: < 1e-05 s⁻¹

Q: With G32C A53C U65C as the variant, how does the “self-cleavage kobs at 2500 uM GlcN6P” value read?
A: < 1e-05 s⁻¹

Q: C34A G59A C70A was tested. Which “self-cleavage kobs at 2500 uM GlcN6P” value did it give?
A: < 1e-05 s⁻¹

Q: With G26U G41C as the variant, how does the “self-cleavage kobs at 2500 uM GlcN6P” value read?
A: 0.000123 ± 3.4e-05 s⁻¹

Q: For A33U G37C C70G, which “self-cleavage kobs at 2500 uM GlcN6P” value is on record?
A: < 1e-05 s⁻¹

Q: For U31A G35C A39U C67A C70U, which “self-cleavage kobs at 2500 uM GlcN6P” value is on record?
A: < 1e-05 s⁻¹

Q: Which “self-cleavage kobs at 2500 uM GlcN6P” value does the source give for A15U C16G U30A A33G G59A here?
A: < 1e-05 s⁻¹

Q: Which “self-cleavage kobs at 2500 uM GlcN6P” value does the source give for U30C G66A C67G here?
A: 4.46e-05 ± 1.2e-05 s⁻¹

Q: A15G G44A U65A was tested. Which “self-cleavage kobs at 2500 uM GlcN6P” value did it give?
A: 8e-05 ± 2e-05 s⁻¹

Q: For A15U G40A A52C G66U, which “self-cleavage kobs at 2500 uM GlcN6P” value is on record?
A: < 1e-05 s⁻¹

Q: With G35U G66U C70U as the variant, how does the “self-cleavage kobs at 2500 uM GlcN6P” value read?
A: < 1e-05 s⁻¹

Q: For G32C U47A A64G C68A, which “self-cleavage kobs at 2500 uM GlcN6P” value is on record?
A: < 1e-05 s⁻¹

Q: With G29U A64G C67G as the variant, how does the “self-cleavage kobs at 2500 uM GlcN6P” value read?
A: 6.02e-05 ± 1.3e-05 s⁻¹

Q: For G29C A33G A53U A64G U69G, which “self-cleavage kobs at 2500 uM GlcN6P” value is on record?
A: 0.000129 ± 4.1e-05 s⁻¹

Q: With G32U G41A C58U as the variant, how does the “self-cleavage kobs at 2500 uM GlcN6P” value read?
A: 9.05e-05 ± 2.6e-05 s⁻¹

Q: C34U U45G was tested. Which “self-cleavage kobs at 2500 uM GlcN6P” value did it give?
A: < 1e-05 s⁻¹

Q: A33G A53U G60U C71G was tested. Which “self-cleavage kobs at 2500 uM GlcN6P” value did it give?
A: < 1e-05 s⁻¹

Q: How did the “self-cleavage kobs at 2500 uM GlcN6P” value turn out when U30A U47C was run?
A: 0.000476 ± 9.7e-05 s⁻¹

Q: For C16U A39U U46C A64G C71G, which “self-cleavage kobs at 2500 uM GlcN6P” value is on record?
A: 9.88e-05 ± 3.4e-05 s⁻¹

Q: For A15U G44C A53U C58G C70U, which “self-cleavage kobs at 2500 uM GlcN6P” value is on record?
A: < 1e-05 s⁻¹

Q: C34A G41U A42C was tested. Which “self-cleavage kobs at 2500 uM GlcN6P” value did it give?
A: < 1e-05 s⁻¹

Q: How did the “self-cleavage kobs at 2500 uM GlcN6P” value turn out when C34U C50U was run?
A: < 1e-05 s⁻¹

Q: With C34U U47G G51U as the variant, how does the “self-cleavage kobs at 2500 uM GlcN6P” value read?
A: < 1e-05 s⁻¹

Q: With U31C A42U U56C G66C as the variant, how does the “self-cleavage kobs at 2500 uM GlcN6P” value read?
A: < 1e-05 s⁻¹

Q: With A15U G43U A53U C68U as the variant, how does the “self-cleavage kobs at 2500 uM GlcN6P” value read?
A: 8.35e-05 ± 3.5e-05 s⁻¹

Q: How did the “self-cleavage kobs at 2500 uM GlcN6P” value turn out when G29U U46A U56A G62U C68U was run?
A: < 1e-05 s⁻¹

Q: With A33U G43U U65C as the variant, how does the “self-cleavage kobs at 2500 uM GlcN6P” value read?
A: < 1e-05 s⁻¹

Q: For G32U A64G G66A, which “self-cleavage kobs at 2500 uM GlcN6P” value is on record?
A: 0.000236 ± 5.9e-05 s⁻¹

Q: How did the “self-cleavage kobs at 2500 uM GlcN6P” value turn out when G29C C34U G35A G40U G59C was run?
A: < 1e-05 s⁻¹

Q: How did the “self-cleavage kobs at 2500 uM GlcN6P” value turn out when C34U C58U U65A was run?
A: < 1e-05 s⁻¹

Q: How did the “self-cleavage kobs at 2500 uM GlcN6P” value turn out when C16G U30C C34G U55C C61U C67U was run?
A: < 1e-05 s⁻¹

Q: How did the “self-cleavage kobs at 2500 uM GlcN6P” value turn out when A33G A36G A52U was run?
A: < 1e-05 s⁻¹

Q: G29A G35U A42G A52U was tested. Which “self-cleavage kobs at 2500 uM GlcN6P” value did it give?
A: < 1e-05 s⁻¹

Q: U31G U56A G66U was tested. Which “self-cleavage kobs at 2500 uM GlcN6P” value did it give?
A: 7.04e-05 ± 1.3e-05 s⁻¹

Q: C34A G37A G43U was tested. Which “self-cleavage kobs at 2500 uM GlcN6P” value did it give?
A: < 1e-05 s⁻¹

Q: With G29U C50U C61U as the variant, how does the “self-cleavage kobs at 2500 uM GlcN6P” value read?
A: < 1e-05 s⁻¹

Q: With G29U A36G A42G G43C G62U U65C U69C as the variant, how does the “self-cleavage kobs at 2500 uM GlcN6P” value read?
A: < 1e-05 s⁻¹

Q: A15G U55G C71U was tested. Which “self-cleavage kobs at 2500 uM GlcN6P” value did it give?
A: 0.00368 ± 0.0014 s⁻¹

Q: How did the “self-cleavage kobs at 2500 uM GlcN6P” value turn out when A15U C16U U49A C70G was run?
A: 4.48e-05 ± 1.7e-05 s⁻¹

Q: Which “self-cleavage kobs at 2500 uM GlcN6P” value does the source give for C34G U47C G66A here?
A: < 1e-05 s⁻¹

Q: How did the “self-cleavage kobs at 2500 uM GlcN6P” value turn out when A33G U46G C68U C71G was run?
A: 0.000183 ± 5.3e-05 s⁻¹

Q: How did the “self-cleavage kobs at 2500 uM GlcN6P” value turn out when C16G C50U A53C C68G was run?
A: 0.000113 ± 4.6e-05 s⁻¹

Q: With A33C G40A A48C G51C G60C as the variant, how does the “self-cleavage kobs at 2500 uM GlcN6P” value read?
A: < 1e-05 s⁻¹

Q: How did the “self-cleavage kobs at 2500 uM GlcN6P” value turn out when U30A U49C G66C was run?
A: < 1e-05 s⁻¹

Q: U30G G32U G35A A53G was tested. Which “self-cleavage kobs at 2500 uM GlcN6P” value did it give?
A: < 1e-05 s⁻¹

Q: How did the “self-cleavage kobs at 2500 uM GlcN6P” value turn out when G35U A36U G43A C50G U69G was run?
A: < 1e-05 s⁻¹

Q: Which “self-cleavage kobs at 2500 uM GlcN6P” value does the source give for G35U A36U A53U G63C here?
A: < 1e-05 s⁻¹

Q: How did the “self-cleavage kobs at 2500 uM GlcN6P” value turn out when G32U U56G G66U was run?
A: 6.54e-05 ± 1.6e-05 s⁻¹

Q: How did the “self-cleavage kobs at 2500 uM GlcN6P” value turn out when C34U C50A U69C was run?
A: 0.000135 ± 6.7e-05 s⁻¹

Q: Which “self-cleavage kobs at 2500 uM GlcN6P” value does the source give for U30A U46G A53U here?
A: 0.000335 ± 9.7e-05 s⁻¹

Q: For A33U G37A U55A C61U, which “self-cleavage kobs at 2500 uM GlcN6P” value is on record?
A: < 1e-05 s⁻¹

Q: For G32C A36C G51C A53C G66A, which “self-cleavage kobs at 2500 uM GlcN6P” value is on record?
A: < 1e-05 s⁻¹

Q: Which “self-cleavage kobs at 2500 uM GlcN6P” value does the source give for C16U C50G U55C here?
A: 7.17e-05 ± 2.1e-05 s⁻¹

Q: C34A G35C A39G G44U C67A C71G was tested. Which “self-cleavage kobs at 2500 uM GlcN6P” value did it give?
A: < 1e-05 s⁻¹

Q: Which “self-cleavage kobs at 2500 uM GlcN6P” value does the source give for G35C U49G G62U C71G here?
A: < 1e-05 s⁻¹

Q: For U31A G38U G51A, which “self-cleavage kobs at 2500 uM GlcN6P” value is on record?
A: < 1e-05 s⁻¹

Q: How did the “self-cleavage kobs at 2500 uM GlcN6P” value turn out when C16U G41A C67U was run?
A: < 1e-05 s⁻¹

Q: For G29U G44A U46C U65C, which “self-cleavage kobs at 2500 uM GlcN6P” value is on record?
A: < 1e-05 s⁻¹

Q: How did the “self-cleavage kobs at 2500 uM GlcN6P” value turn out when C16U U46C C61G was run?
A: < 1e-05 s⁻¹

Q: How did the “self-cleavage kobs at 2500 uM GlcN6P” value turn out when U30C G41U A42C was run?
A: < 1e-05 s⁻¹

Q: Which “self-cleavage kobs at 2500 uM GlcN6P” value does the source give for U30G G41C C58U here?
A: < 1e-05 s⁻¹

Q: With G29U U47G U54G as the variant, how does the “self-cleavage kobs at 2500 uM GlcN6P” value read?
A: 0.000533 ± 0.00012 s⁻¹

Q: For G35C U46G U56A, which “self-cleavage kobs at 2500 uM GlcN6P” value is on record?
A: < 1e-05 s⁻¹

Q: For C34U G60A C68U, which “self-cleavage kobs at 2500 uM GlcN6P” value is on record?
A: < 1e-05 s⁻¹

Q: Which “self-cleavage kobs at 2500 uM GlcN6P” value does the source give for C16G U31A C34A here?
A: < 1e-05 s⁻¹

Q: Which “self-cleavage kobs at 2500 uM GlcN6P” value does the source give for A15G A36U G43C here?
A: < 1e-05 s⁻¹

Q: With U30A G41U U55G G59A U69A as the variant, how does the “self-cleavage kobs at 2500 uM GlcN6P” value read?
A: < 1e-05 s⁻¹

Q: For A15G A48C C50U, which “self-cleavage kobs at 2500 uM GlcN6P” value is on record?
A: < 1e-05 s⁻¹

Q: A15G U49G C50A G60C was tested. Which “self-cleavage kobs at 2500 uM GlcN6P” value did it give?
A: < 1e-05 s⁻¹

Q: G29C A64G G66U was tested. Which “self-cleavage kobs at 2500 uM GlcN6P” value did it give?
A: 4.43e-05 ± 1.8e-05 s⁻¹

Q: How did the “self-cleavage kobs at 2500 uM GlcN6P” value turn out when A33C C61A G62U was run?
A: < 1e-05 s⁻¹

Q: Which “self-cleavage kobs at 2500 uM GlcN6P” value does the source give for U30G G63C A64U here?
A: < 1e-05 s⁻¹

Q: For U31G A48U A52C, which “self-cleavage kobs at 2500 uM GlcN6P” value is on record?
A: < 1e-05 s⁻¹

Q: How did the “self-cleavage kobs at 2500 uM GlcN6P” value turn out when C34U G51U A64C was run?
A: < 1e-05 s⁻¹

Q: For G29A G35U G41A, which “self-cleavage kobs at 2500 uM GlcN6P” value is on record?
A: < 1e-05 s⁻¹

Q: How did the “self-cleavage kobs at 2500 uM GlcN6P” value turn out when C16A A33C G40A U56C C67U was run?
A: < 1e-05 s⁻¹

Variants of: B1
Assay: self-cleavage kobs at 10000 uM GlcN6P; higher = faster cleavage; RNA array
Details: with glucosamine-6-phosphate
In short: as §1

Q: C34U U45G was tested. Which “self-cleavage kobs at 10000 uM GlcN6P” value did it give?
A: < 1e-05 s⁻¹

Q: How did the “self-cleavage kobs at 10000 uM GlcN6P” value turn out when U30A U47C was run?
A: 0.000396 ± 9.1e-05 s⁻¹

Q: With G29C C34U G35A G40U G59C as the variant, how does the “self-cleavage kobs at 10000 uM GlcN6P” value read?
A: < 1e-05 s⁻¹

Q: For A33G A36G A52U, which “self-cleavage kobs at 10000 uM GlcN6P” value is on record?
A: < 1e-05 s⁻¹

Q: U30G G63C A64U was tested. Which “self-cleavage kobs at 10000 uM GlcN6P” value did it give?
A: < 1e-05 s⁻¹
